According to patent publication US20220002395A1 (FAPON BIOTECH, published 2022):

B1: Mutation 1-3 (antibody, mouse IgG2b, kappa, V domains shown)
VH: EVQLQQSGPEVVKPGASVKISCKASGYTITDYYMNWVKQSHGKGLEWIGDLNPINGGTAYQQKFRDKATLTVDKSSNTAYMELRSLTSEDSALYYCTRGAEDYWGQGTTLTVSS
VL: DVVLTQTPLSLSVTIGQPASISCKSSQSIIYSNGKIYLNWFQQRPGQSPKRLMYQLSKLEPGIPDRFSGSGSETDFTLKISRVEAEDLGVYYCLQGTYSPQTFGGGTKLEIKR
notes: Mutation 1 as framework
B2: Mutation 1-2 (antibody, mouse IgG2b, kappa, V domains shown)
VH: EVQLQQSGPEVVKPGASVKISCKASGSTLTDYYMNWVKQSHGKGLEWIGDVNPIQGGTAYQQKFRDKATLTVDKSSNTAYMELRSLTSEDSALYYCTKGAEDYWGQGTTLTVSS
VL: DVVLTQTPLSLSVTIGQPASISCKSSQSLLYSNGKIYLNWFQQRPGQSPKRLMYQLSKLDPGIPDRFSGSGSETDFTLKISRVEAEDLGVYYCLQATYTPQTFGGGTKLEIKR
notes: Mutation 1 as framework
B3: Mutation 1-5 (antibody, mouse IgG2b, kappa, V domains shown)
VH: EVQLQQSGPEVVKPGASVKISCKASGSTLTDYYMNWVKQSHGKGLEWIGDVNPINGGTAYNQKFRDKATLTVDKSSNTAYMELRSLTSEDSALYYCTRGAEDYWGQGTTLTVSS
VL: DVVLTQTPLSLSVTIGQPASISCKSSQSILYSQGKIYLNWFQQRPGQSPKRLMYQVSKLEPGIPDRFSGSGSETDFTLKISRVEAEDLGVYYCLQGTYTPQTFGGGTKLEIKR
notes: Mutation 1 as framework
B4: Mutation 1-1 (antibody, mouse IgG2b, kappa, V domains shown)
VH: EVQLQQSGPEVVKPGASVKISCKASGYTITDYYMNWVKQSHGKGLEWIGDINPIQGGTAYNQKFRDKATLTVDKSSNTAYMELRSLTSEDSALYYCTRGAEDYWGQGTTLTVSS
VL: DVVLTQTPLSLSVTIGQPASISCKSSQSIIYSQGKIYLNWFQQRPGQSPKRLMYQISKLEPGIPDRFSGSGSETDFTLKISRVEAEDLGVYYCLQGTYYPQTFGGGTKLEIKR
notes: Mutation 1 as framework
B5: Mutation 1-4 (antibody, mouse IgG2b, kappa, V domains shown)
VH: EVQLQQSGPEVVKPGASVKISCKASGYTLTDYYMNWVKQSHGKGLEWIGDINPINGGTAYQQKFRDKATLTVDKSSNTAYMELRSLTSEDSALYYCTKGAEDYWGQGTTLTVSS
VL: DVVLTQTPLSLSVTIGQPASISCKSSQSILYSNGKIYLNWFQQRPGQSPKRLMYQVSKLDPGIPDRFSGSGSETDFTLKISRVEAEDLGVYYCLQATYYPQTFGGGTKLEIKR
notes: Mutation 1 as framework
B6: Mutation 1-6 (antibody, mouse IgG2b, kappa, V domains shown)
VH: EVQLQQSGPEVVKPGASVKISCKASGYTITDYYMNWVKQSHGKGLEWIGDLNPIQGGTAYNQKFRDKATLTVDKSSNTAYMELRSLTSEDSALYYCTKGAEDYWGQGTTLTVSS
VL: DVVLTQTPLSLSVTIGQPASISCKSSQSLIYSNGKIYLNWFQQRPGQSPKRLMYQISKLDPGIPDRFSGSGSETDFTLKISRVEAEDLGVYYCLQATYSPQTFGGGTKLEIKR
notes: Mutation 1 as framework
B7: Mutation 1-7 (antibody, mouse IgG2b, kappa, V domains shown)
VH: EVQLQQSGPEVVKPGASVKISCKASGYTITDYYMNWVKQSHGKGLEWIGDINPINGGTAYQQKFRDKATLTVDKSSNTAYMELRSLTSEDSALYYCTRGAEDYWGQGTTLTVSS
VL: DVVLTQTPLSLSVTIGQPASISCKSSQSLIYSNGKIYLNWFQQRPGQSPKRLMYQISKLEPGIPDRFSGSGSETDFTLKISRVEAEDLGVYYCLQATYYPQTFGGGTKLEIKR
notes: Mutation 1 as framework
B8: Mutation 1-51 (antibody, mouse IgG2b, kappa, V domains shown)
VH: EVQLQQSGPEVVKPGASVKISCKASGSTLTDYYMNWVKQSHGKGLEWIGDLNPINGGTAYQQKFRDKATLTVDKSSNTAYMELRSLTSEDSALYYCTKGAEDYWGQGTTLTVSS
VL: DVVLTQTPLSLSVTIGQPASISCKSSQSLLYSNGKIYLNWFQQRPGQSPKRLMYQLSKLEPGIPDRFSGSGSETDFTLKISRVEAEDLGVYYCLQGTYYPQTFGGGTKLEIKR
notes: Mutation 1 as framework
B9: Mutation 1-43 (antibody, mouse IgG2b, kappa, V domains shown)
VH: EVQLQQSGPEVVKPGASVKISCKASGTTLTDYYMNWVKQSHGKGLEWIGDINPINGGTAYQQKFRDKATLTVDKSSNTAYMELRSLTSEDSALYYCTKGAEDYWGQGTTLTVSS
VL: DVVLTQTPLSLSVTIGQPASISCKSSQSILYSNGKIYLNWFQQRPGQSPKRLMYQISKLEPGIPDRFSGSGSETDFTLKISRVEAEDLGVYYCLQGTYSPQTFGGGTKLEIKR
notes: Mutation 1 as framework
B10: Mutation 1-40 (antibody, mouse IgG2b, kappa, V domains shown)
VH: EVQLQQSGPEVVKPGASVKISCKASGTTLTDYYMNWVKQSHGKGLEWIGDINPINGGTAYQQKFRDKATLTVDKSSNTAYMELRSLTSEDSALYYCTRGAEDYWGQGTTLTVSS
VL: DVVLTQTPLSLSVTIGQPASISCKSSQSILYSNGKIYLNWFQQRPGQSPKRLMYQLSKLDPGIPDRFSGSGSETDFTLKISRVEAEDLGVYYCLQGTYTPQTFGGGTKLEIKR
notes: Mutation 1 as framework
B11: Mutation 1-27 (antibody, mouse IgG2b, kappa, V domains shown)
VH: EVQLQQSGPEVVKPGASVKISCKASGTTLTDYYMNWVKQSHGKGLEWIGDLNPINGGTAYQQKFRDKATLTVDKSSNTAYMELRSLTSEDSALYYCTKGAEDYWGQGTTLTVSS
VL: DVVLTQTPLSLSVTIGQPASISCKSSQSIIYSNGKIYLNWFQQRPGQSPKRLMYQLSKLEPGIPDRFSGSGSETDFTLKISRVEAEDLGVYYCLQGTYSPQTFGGGTKLEIKR
notes: Mutation 1 as framework
B12: Mutation 1-12 (antibody, mouse IgG2b, kappa, V domains shown)
VH: EVQLQQSGPEVVKPGASVKISCKASGYTITDYYMNWVKQSHGKGLEWIGDLNPINGGTAYNQKFRDKATLTVDKSSNTAYMELRSLTSEDSALYYCTRGAEDYWGQGTTLTVSS
VL: DVVLTQTPLSLSVTIGQPASISCKSSQSILYSNGKIYLNWFQQRPGQSPKRLMYQISKLDPGIPDRFSGSGSETDFTLKISRVEAEDLGVYYCLQGTYSPQTFGGGTKLEIKR
notes: Mutation 1 as framework
B13: Mutation 1-44 (antibody, mouse IgG2b, kappa, V domains shown)
VH: EVQLQQSGPEVVKPGASVKISCKASGYTITDYYMNWVKQSHGKGLEWIGDVNPINGGTAYQQKFRDKATLTVDKSSNTAYMELRSLTSEDSALYYCTRGAEDYWGQGTTLTVSS
VL: DVVLTQTPLSLSVTIGQPASISCKSSQSILYSNGKIYLNWFQQRPGQSPKRLMYQLSKLDPGIPDRFSGSGSETDFTLKISRVEAEDLGVYYCLQATYSPQTFGGGTKLEIKR
notes: Mutation 1 as framework
B14: Mutation 1-38 (antibody, mouse IgG2b, kappa, V domains shown)
VH: EVQLQQSGPEVVKPGASVKISCKASGTTLTDYYMNWVKQSHGKGLEWIGDVNPIQGGTAYQQKFRDKATLTVDKSSNTAYMELRSLTSEDSALYYCTRGAEDYWGQGTTLTVSS
VL: DVVLTQTPLSLSVTIGQPASISCKSSQSLLYSNGKIYLNWFQQRPGQSPKRLMYQLSKLDPGIPDRFSGSGSETDFTLKISRVEAEDLGVYYCLQGTYSPQTFGGGTKLEIKR
notes: Mutation 1 as framework
B15: Mutation 1-24 (antibody, mouse IgG2b, kappa, V domains shown)
VH: EVQLQQSGPEVVKPGASVKISCKASGTTLTDYYMNWVKQSHGKGLEWIGDLNPIQGGTAYQQKFRDKATLTVDKSSNTAYMELRSLTSEDSALYYCTKGAEDYWGQGTTLTVSS
VL: DVVLTQTPLSLSVTIGQPASISCKSSQSIIYSNGKIYLNWFQQRPGQSPKRLMYQISKLDPGIPDRFSGSGSETDFTLKISRVEAEDLGVYYCLQATYSPQTFGGGTKLEIKR
notes: Mutation 1 as framework
B16: Mutation 1-30 (antibody, mouse IgG2b, kappa, V domains shown)
VH: EVQLQQSGPEVVKPGASVKISCKASGSTLTDYYMNWVKQSHGKGLEWIGDLNPIQGGTAYNQKFRDKATLTVDKSSNTAYMELRSLTSEDSALYYCTKGAEDYWGQGTTLTVSS
VL: DVVLTQTPLSLSVTIGQPASISCKSSQSIIYSNGKIYLNWFQQRPGQSPKRLMYQISKLDPGIPDRFSGSGSETDFTLKISRVEAEDLGVYYCLQATYSPQTFGGGTKLEIKR
notes: Mutation 1 as framework
B17: Mutation 1-9 (antibody, mouse IgG2b, kappa, V domains shown)
VH: EVQLQQSGPEVVKPGASVKISCKASGYTLTDYYMNWVKQSHGKGLEWIGDLNPIQGGTAYNQKFRDKATLTVDKSSNTAYMELRSLTSEDSALYYCTRGAEDYWGQGTTLTVSS
VL: DVVLTQTPLSLSVTIGQPASISCKSSQSIIYSQGKIYLNWFQQRPGQSPKRLMYQLSKLEPGIPDRFSGSGSETDFTLKISRVEAEDLGVYYCLQGTYSPQTFGGGTKLEIKR
notes: Mutation 1 as framework
B18: Mutation 1-34 (antibody, mouse IgG2b, kappa, V domains shown)
VH: EVQLQQSGPEVVKPGASVKISCKASGTTLTDYYMNWVKQSHGKGLEWIGDINPINGGTAYQQKFRDKATLTVDKSSNTAYMELRSLTSEDSALYYCTRGAEDYWGQGTTLTVSS
VL: DVVLTQTPLSLSVTIGQPASISCKSSQSLLYSNGKIYLNWFQQRPGQSPKRLMYQVSKLDPGIPDRFSGSGSETDFTLKISRVEAEDLGVYYCLQGTYTPQTFGGGTKLEIKR
notes: Mutation 1 as framework
B19: Mutation 1-42 (antibody, mouse IgG2b, kappa, V domains shown)
VH: EVQLQQSGPEVVKPGASVKISCKASGYTITDYYMNWVKQSHGKGLEWIGDLNPINGGTAYQQKFRDKATLTVDKSSNTAYMELRSLTSEDSALYYCTRGAEDYWGQGTTLTVSS
VL: DVVLTQTPLSLSVTIGQPASISCKSSQSILYSNGKIYLNWFQQRPGQSPKRLMYQISKLDPGIPDRFSGSGSETDFTLKISRVEAEDLGVYYCLQGTYSPQTFGGGTKLEIKR
notes: Mutation 1 as framework
B20: Mutation 1-52 (antibody, mouse IgG2b, kappa, V domains shown)
VH: EVQLQQSGPEVVKPGASVKISCKASGTTLTDYYMNWVKQSHGKGLEWIGDINPIQGGTAYQQKFRDKATLTVDKSSNTAYMELRSLTSEDSALYYCTRGAEDYWGQGTTLTVSS
VL: DVVLTQTPLSLSVTIGQPASISCKSSQSIIYSNGKIYLNWFQQRPGQSPKRLMYQVSKLDPGIPDRFSGSGSETDFTLKISRVEAEDLGVYYCLQATYYPQTFGGGTKLEIKR
notes: Mutation 1 as framework
B21: Mutation 1-36 (antibody, mouse IgG2b, kappa, V domains shown)
VH: EVQLQQSGPEVVKPGASVKISCKASGTTLTDYYMNWVKQSHGKGLEWIGDLNPIQGGTAYNQKFRDKATLTVDKSSNTAYMELRSLTSEDSALYYCTRGAEDYWGQGTTLTVSS
VL: DVVLTQTPLSLSVTIGQPASISCKSSQSLLYSNGKIYLNWFQQRPGQSPKRLMYQISKLDPGIPDRFSGSGSETDFTLKISRVEAEDLGVYYCLQGTYSPQTFGGGTKLEIKR
notes: Mutation 1 as framework

biological target: T1, Plasmodium falciparum histidine-rich protein II (HRP-II) (Plasmodium falciparum, UniProt P05227 22-332); experiment: indirect ELISA, four antigen coating concentrations;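 further: optical density read across an antibody dilution series at each antigen coating level, curves plotted on log scale, KD derived as reciprocal of the averaged constant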
T1 construct: Coating antigen of all ELISAs; also called HRP-II protein; MA-HRPII Ag protein
T1 sequence (looked up): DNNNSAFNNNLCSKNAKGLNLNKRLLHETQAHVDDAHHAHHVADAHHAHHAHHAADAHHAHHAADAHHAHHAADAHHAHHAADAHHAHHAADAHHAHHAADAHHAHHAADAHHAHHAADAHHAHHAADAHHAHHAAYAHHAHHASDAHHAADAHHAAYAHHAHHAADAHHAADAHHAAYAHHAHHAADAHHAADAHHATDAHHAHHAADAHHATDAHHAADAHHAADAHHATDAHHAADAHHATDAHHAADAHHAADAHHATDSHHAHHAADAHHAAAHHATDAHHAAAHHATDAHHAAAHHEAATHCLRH
Procedure: The OD values corresponding to different antibody concentrations with different coating concentrations are obtained. Under the same coating concentration, the antibody concentrations are used as an abscissa, the 00 values are used as an ordinate, and a logarithmic plot is made. […] An average value thereof is taken and a reciprocal thereof is calculated to get the affinity constant KD.

Binder | Kd [nM]
B1 | 0.362
B2 | 0.0903
B3 | 0.125
B4 | 0.301
B5 | 0.465
B6 | 0.415
B7 | 0.329
B8 | 0.179
B9 | 0.124
B10 | 0.083
B11 | 0.165
B12 | 0.126
B13 | 0.105
B14 | 0.0883
B15 | 0.127
B16 | 0.233
B17 | 0.0645
B18 | 0.184
B19 | 0.0643
B20 | 0.182
B21 | 0.473
